Test results taken from patent US20230183331A1.

Target: IL-2 receptor (IL-2R) on primary pan T-cells from healthy donors (human) (UniProt P01589)
Experiment: cell-based or functional assay

IL-2 receptor (IL-2R) on primary pan T-cells from healthy donors (human), sequence (P01589 22-272, chain 1 of 3): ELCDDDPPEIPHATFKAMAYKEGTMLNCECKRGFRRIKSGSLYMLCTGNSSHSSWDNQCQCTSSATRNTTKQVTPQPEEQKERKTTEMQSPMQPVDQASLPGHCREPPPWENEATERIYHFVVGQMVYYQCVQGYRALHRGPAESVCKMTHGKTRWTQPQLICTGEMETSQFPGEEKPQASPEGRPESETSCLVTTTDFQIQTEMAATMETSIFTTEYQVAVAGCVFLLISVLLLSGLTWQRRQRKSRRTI
IL-2 receptor (IL-2R) on primary pan T-cells from healthy donors (human), sequence (P14784 27-551, chain 2 of 3, further chain): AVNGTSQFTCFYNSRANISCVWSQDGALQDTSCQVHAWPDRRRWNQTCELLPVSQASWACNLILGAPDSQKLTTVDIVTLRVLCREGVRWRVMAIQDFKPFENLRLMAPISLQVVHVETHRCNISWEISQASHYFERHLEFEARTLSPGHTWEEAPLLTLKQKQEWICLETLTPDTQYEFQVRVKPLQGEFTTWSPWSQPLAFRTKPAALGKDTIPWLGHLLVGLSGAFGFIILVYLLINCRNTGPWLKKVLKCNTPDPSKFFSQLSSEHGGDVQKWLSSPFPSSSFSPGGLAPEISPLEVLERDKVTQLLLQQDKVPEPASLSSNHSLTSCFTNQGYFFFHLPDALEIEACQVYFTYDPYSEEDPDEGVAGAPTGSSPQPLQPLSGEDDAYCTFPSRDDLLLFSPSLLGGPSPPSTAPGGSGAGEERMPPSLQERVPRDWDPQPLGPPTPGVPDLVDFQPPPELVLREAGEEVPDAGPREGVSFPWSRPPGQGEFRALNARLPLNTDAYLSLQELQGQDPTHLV
IL-2 receptor (IL-2R) on primary pan T-cells from healthy donors (human), sequence (P31785 23-369, chain 3 of 3, further chain): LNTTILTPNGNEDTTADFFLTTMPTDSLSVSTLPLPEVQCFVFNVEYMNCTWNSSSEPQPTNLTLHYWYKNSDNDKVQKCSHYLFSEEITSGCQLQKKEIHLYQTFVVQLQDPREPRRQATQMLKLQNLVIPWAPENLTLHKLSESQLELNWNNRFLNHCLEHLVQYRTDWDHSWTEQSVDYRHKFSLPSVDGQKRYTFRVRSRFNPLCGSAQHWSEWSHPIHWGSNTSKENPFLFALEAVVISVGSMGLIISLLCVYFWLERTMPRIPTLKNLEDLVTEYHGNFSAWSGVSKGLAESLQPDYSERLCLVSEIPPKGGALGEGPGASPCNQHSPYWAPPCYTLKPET

CD8 EC50 (nM), STAT5 phosphorylation: 9.07 nM
CD8 naïve EC50 (nM), STAT5 phosphorylation: 477 nM
Treg EC50 (nM), STAT5 phosphorylation: 0.019 nM
Substance: Aldesleukin (from UniProt P60568 22-153) (ligand)
